T1: CasM.265466 D220R (unidentified, D220R)
T1 chain: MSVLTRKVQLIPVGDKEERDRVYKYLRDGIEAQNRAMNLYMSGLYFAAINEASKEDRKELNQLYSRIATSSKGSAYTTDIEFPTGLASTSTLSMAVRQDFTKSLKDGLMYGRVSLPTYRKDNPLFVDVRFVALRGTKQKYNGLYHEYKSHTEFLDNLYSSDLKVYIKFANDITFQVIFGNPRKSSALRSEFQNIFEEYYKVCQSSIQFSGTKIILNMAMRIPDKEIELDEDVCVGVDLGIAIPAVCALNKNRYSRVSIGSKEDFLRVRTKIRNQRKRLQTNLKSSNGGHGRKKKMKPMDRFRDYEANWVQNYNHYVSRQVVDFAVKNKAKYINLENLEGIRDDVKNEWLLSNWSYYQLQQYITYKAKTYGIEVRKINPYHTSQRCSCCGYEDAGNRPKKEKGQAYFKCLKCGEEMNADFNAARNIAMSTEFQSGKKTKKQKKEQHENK

B1: R16928 guide ; APOC3 target of R16928 (ssRNA ; dsDNA)
RNA: ACAGCUUAUUUGGAAGCUGAAAUGUGAGGUUUAUAACACUCACAAGAAUCCUGAAAAAGGAUGCCAAACGACCCUGAGGUCAGACCAAC
DNA 1: GACCCTGAGGTCAGACCAAC
DNA 2: GTTGGTCTGACCTCAGGGTC
B2: R16927 guide ; APOC3 target of R16927 (ssRNA ; dsDNA)
RNA: ACAGCUUAUUUGGAAGCUGAAAUGUGAGGUUUAUAACACUCACAAGAAUCCUGAAAAAGGAUGCCAAACAGUUCUGGGAUUUGGACCCU
DNA 1: AGTTCTGGGATTTGGACCCT
DNA 2: AGGGTCCAAATCCCAGAACT
B3: R16929 guide ; APOC3 target of R16929 (ssRNA ; dsDNA)
RNA: ACAGCUUAUUUGGAAGCUGAAAUGUGAGGUUUAUAACACUCACAAGAAUCCUGAAAAAGGAUGCCAAACACCUCAGGGUCCAAAUCCCA
DNA 1: ACCTCAGGGTCCAAATCCCA
DNA 2: TGGGATTTGGACCCTGAGGT

Biological target: T1, CasM.265466 D220R
Assay: cell_activity; AAV8 in hAPOC3 mice, vehicle 936; PAM NNTN
Description: Samples were collected from mice at 2 and 4 weeks.
Levels of human APOC3 protein in liver were quantified by ELISA. CasM.265466 variant D220R and multiple APOC3 guide RNAs tested reduced human ApoC3 protein in liver at 2 weeks and 4 weeks. […] Liver and body weights were normal at 0, 2 and 4 weeks. At four weeks post injection ALT levels were reduced in mice that received CasM.265466 variant D220R or CasPhi.12 variant L26R when compared those of mice receiving vehicle only. […] The guide IDs shown in the legend from top to bottom correspond to the data points in the graphs from left to right.

| Binder | activity [mg/dL serum triglycerides] |
| --- | --- |
| B1 | 190 |
| B2 | 145 |
| B3 | 247 |
